Values quoted from earlier work as cited in article PMC7763558.

Key:
Assay in all cases: SPR
[1] = target: BPTI (unfolded client) (Bos taurus) (UniProt P00974)
[2] = target: BPTI (partially folded client) (Bos taurus) (UniProt P00974)
[3] = target: BPTI (native client) (Bos taurus) (UniProt P00974)

Kd [1]: 3 µM
Kd [2]: 14 µM
Kd [3]: 394 µM
Substance: PDI (from UniProt P07237)
